Measurements taken from patent US6541212.

Molecular target: T1, recombinant secreted soluble PSCA with a C-terminal 6XHis and MYC tag (human) (UniProt O43653)
T1 sequence: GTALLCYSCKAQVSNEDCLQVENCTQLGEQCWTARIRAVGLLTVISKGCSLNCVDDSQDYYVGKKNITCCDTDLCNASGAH
Test: SPR (BIAcore), recombinant PSCA immobilized at 30 RU, mAb in solution

B1: anti-PSCA monoclonal antibody 1G8 (antibody, part only; not given: light chain, V domains shown, part only)
VH: CFFLMAVVIGVNSEVQLQQSGAELVRSGASVKLSCTASGFNIKDYYIHWVNQRPDQGLEWIGWIDPENGDTEFVPKFQGKATMTADIFSNTAYLHLSSLTSEDTAVYYCKTGGFWGQGTLVTVSAAKTTPPSVYPL
Kd: 1 nM
kon: 168000 M⁻¹ s⁻¹
